Laboratory results reported in patent US20200148778A1.
Like-named read-outs stand apart in the source and are kept apart here.

Experiments:
[1] = biological target: human CD40 on HEK293 cells stably transfected with the human CD40 gene (HEK-Blue CD40L cells) (human) (UniProt P25942); assay: HEK293-CD40 cells binding; method not described
[2] = biological target: His-tagged human CD40 (h-CD40-his) recombinant protein (human) (UniProt P25942); assay: ELISA, human CD40-his coated
[3] = biological target: His-tagged rhesus CD40 (rhesus-CD40-his) recombinant protein (rhesus) (UniProt F6SNI1); assay: ELISA, rhesus CD40-his coated
[4] = biological target: Fc-tagged human CD40 (h-CD40-Fc) recombinant protein (human) (UniProt P25942); assay: hCD40/hCD40L blocking ELISA, CD40L as competitor
[5] = biological target: His-tagged human CD40 (h-CD40-his) recombinant protein (human) (UniProt P25942); assay: Biacore X100, antibody captured by anti-human antibody on CM5 chip, CD40 antigen as analyte, 1:1 model
[6] = biological target: His-tagged human CD40 (h-CD40-his) recombinant protein (human) (UniProt P25942); assay: ELISA, human CD40-his coated; remark: listed apart in the source
[7] = biological target: Fc-tagged human CD40 (h-CD40-Fc) recombinant protein (human) (UniProt P25942); assay: hCD40/hCD40L blocking ELISA, CD40L as competitor; remark: listed apart in the source
[8] = biological target: His-tagged human CD40 (h-CD40-his) recombinant protein (human) (UniProt P25942); assay: Biacore X100, antibody captured by anti-human antibody on CM5 chip, CD40 antigen as analyte, 1:1 model; remark: listed apart in the source
[9] = biological target: human CD40 on HEK293 cells stably transfected with the human CD40 gene (HEK-Blue CD40L cells) (human) (UniProt P25942); assay: HEK293-CD40 cells binding; method not described; remark: listed apart in the source

Chain of His-tagged human CD40 (h-CD40-his) recombinant protein (human) (P25942 21-193 limits assumed): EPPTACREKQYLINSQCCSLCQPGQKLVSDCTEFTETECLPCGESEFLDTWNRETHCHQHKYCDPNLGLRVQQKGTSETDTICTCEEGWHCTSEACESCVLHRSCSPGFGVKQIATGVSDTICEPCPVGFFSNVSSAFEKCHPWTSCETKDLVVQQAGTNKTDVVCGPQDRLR
Chain of Fc-tagged human CD40 (h-CD40-Fc) recombinant protein (human) (P25942 21-193 limits assumed): as above
Chain of human CD40 on HEK293 cells stably transfected with the human CD40 gene (HEK-Blue CD40L cells) (human) (P25942 21-277): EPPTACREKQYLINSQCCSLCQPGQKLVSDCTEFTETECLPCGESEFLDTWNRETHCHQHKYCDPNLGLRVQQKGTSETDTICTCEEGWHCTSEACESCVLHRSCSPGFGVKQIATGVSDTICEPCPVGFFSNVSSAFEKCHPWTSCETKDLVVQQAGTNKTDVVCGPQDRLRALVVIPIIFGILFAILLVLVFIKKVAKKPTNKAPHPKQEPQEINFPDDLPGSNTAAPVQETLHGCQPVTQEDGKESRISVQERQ
Chain of His-tagged rhesus CD40 (rhesus-CD40-his) recombinant protein (rhesus) (F6SNI1 entry or part of it): as the sequence (P25942 21-193 limits assumed) above, with G43S, H56R, W89L, T92M, A95S, L101P, S106L, H142R, L172Q counted along it

B1: Alligator reference (hIgG1) (antibody, INN chains, looked up, V domains shown)
VH: EVQLLESGGGLVQPGGSLRLSCAASGFTFSTYGMHWVRQAPGKGLEWLSYISGGSSYIFYADSVRGRFTISRDNSENALYLQMNSLRAEDTAVYYCARILRGGSGMDLWGQGTLVTVSS
VL: QSVLTQPPSASGTPGQRVTISCTGSSSNIGAGYNVYWYQQLPGTAPKLLIYGNINRPSGVPDRFSGSKSGTSASLAISGLRSEDEADYYCAAWDKSISGLVFGGGTKLTVL
EC50 [1]: 1.36 mg/L
EC50 [2]: 0.00129 mg/L
EC50 [3]: 0.00124 mg/L
IC50 [4]: 0.647 mg/L
Kd [5]: 0.0659 µM
EC50 [6]: 0.00329 mg/L
IC50 [7]: 0.723 mg/L
Kd [8]: 0.166 µM
EC50 [9]: 0.397 mg/L
